Columns and labels:
[1] = tested on: HeLa Kyoto; experiment: melting temperature (median over replicates), in situ; higher = more thermally stable
[2] = tested on: HeLa Kyoto; experiment: solubility in G1/S (NP-40 vs SDS abundance) (log2 ratio); higher = more soluble; details: cell cycle stage: G1/S
[3] = tested on: HeLa Kyoto; experiment: thermal stability score vs G1/S (z-score of summed log2 fold changes over temperatures); higher = more thermally stable than in G1/S
[4] = tested on: HeLa Kyoto; experiment: solubility change mitosis vs G1/S (difference of NP-40 vs SDS log2 ratios) (log2 ratio difference); higher = more soluble in mitosis
[5] = cell cycle stage: early G1 (4.5 h after nocodazole release)
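Throughout, for melting temperature (median over replicates), in situ: HeLa Kyoto cells synchronized by double thymidine or nocodazole block, proteins quantified by TMT10plex mass spectrometry, three independent biological replicates.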
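Throughout, for solubility change mitosis vs G1/S (difference of NP-40 vs SDS log2 ratios): synchronized HeLa Kyoto cells (double thymidine block for G1/S, nocodazole release for mitosis), protein amounts in NP-40 versus SDS lysates quantified by mass spectrometry, three biological replicates.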
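Throughout, for solubility in G1/S (NP-40 vs SDS abundance): HeLa Kyoto cells arrested at G1/S by double thymidine block, proteins quantified by TMT10plex mass spectrometry in mild NP-40 versus SDS extracts, three biological replicates.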
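Throughout, for thermal stability score vs G1/S (z-score of summed log2 fold changes over temperatures): synchronized HeLa Kyoto cells, proteins quantified by TMT10plex mass spectrometry, three biological replicates, mitosis taken 0.5 h after nocodazole release, G1/S directly after double thymidine block.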

Sequence | melting temperature ([1]; cell cycle stage: G1/S) [°C] | melting temperature ([1]; cell cycle stage: mitosis) [°C] | solubility in G1/S (log2) [2] | thermal stability score [3, 5] | thermal stability score ([3]; cell cycle stage: mitosis) | solubility change mitosis (log2) [4]
MAALVRPARFVVRPLLQVVQAWDLDARRWVRALRRSPVKVVFPSGEVVEQKRAPGKQPRKAPSEASAQEQREKQPLEESASRAPSTWEESGLRYDKAYPGDRRLSSVMTIVKSRPFREKQGKILLEGRRLISDALKAGAVPKMFFFSRLEYLKELPVDKLKGVSLIKVKFEDIKDWSDLVTPQGIMGIFAKPDHVKMTYPKTQLQHSLPLLLICDNLRDPGNLGTILRSAAGAGCSKVLLTKGCVDAWEPKVLRAGMGAHFRMPIINNLEWETVPNYLPPDTRVYVADNCGLYAQAEMSNKASDHGWVCDQRVMKFHKYEEEEDVETGASQDWLPHVEVQSYDSDWTEAPAAVVIGGETYGVSLESLQLAESTGGKRLLIPVVPGVDSLNSAMAASILLFEGKRQLRGRAEDLSRDRSYH [RNMTL1] | 53.2 | 52.1 | -0.452 | -0.281 | -1.34 | 0.163
MAAMRKALPRRLVGLASLRAVSTSSMGTLPKRVKIVEVGPRDGLQNEKNIVSTPVKIKLIDMLSEAGLSVIETTSFVSPKWVPQMGDHTEVLKGIQKFPGINYPVLTPNLKGFEAAVAAGAKEVVIFGAASELFTKKNINCSIEESFQRFDAILKAAQSANISVRGYVSCALGCPYEGKISPAKVAEVTKKFYSMGCYEISLGDTIGVGTPGIMKDMLSAVMQEVPLAALAVHCHDTYGQALANTLMALQMGVSVVDSSVAGLGGCPYAQGASGNLATEDLVYMLEGLGIHTGVNLQKLLEAGNFICQALNRKTSSKVAQATCKL [HMGCL] | 54.1 | 53.9 | 0.536 | 0.275 | 0.372 | -0.047
MAANKSKGQSSLALHKVIMVGSGGVGKSALTLQFMYDEFVEDYEPTKADSYRKKVVLDGEEVQIDILDTAGQEDYAAIRDNYFRSGEGFLLVFSITEHESFTATAEFREQILRVKAEEDKIPLLVVGNKSDLEERRQVPVEEARSKAEEWGVQYVETSAKTRANVDKVFFDLMREIRTKKMSENKDKNGKKSSKNKKSFKERCCLL [RALB] | 57 | 57.7 | 0.046 | -0.446 | -2.23 | 0.0599
MAANMYRVGDYVYFENSSSNPYLIRRIEELNKTANGNVEAKVVCFYRRRDISSTLIALADKHATLSVCYKAGPGADNGEEGEIEEEMENPEMVDLPEKLKHQLRHRELFLSRQLESLPATHIRGKCSVTLLNETESLKSYLEREDFFFYSLVYDPQQKTLLADKGEIRVGNRYQADITDLLKEGEEDGRDQSRLETQVWEAHNPLTDKQIDQFLVVARSVGTFARALDCSSSVRQPSLHMSAAAASRDITLFHAMDTLHKNIYDISKAISALVPQGGPVLCRDEMEEWSASEANLFEEALEKYGKDFTDIQQDFLPWKSLTSIIEYYYMWKTTDRYVQQKRLKAAEAESKLKQVYIPNYNKPNPNQISVNNVKAGVVNGTGAPGQSPGAGRACESCYTTQSYQWYSWGPPNMQCRLCASCWTYWKKYGGLKMPTRLDGERPGPNRSNMSPHGLPARSSGSPKFAMKTRQAFYLHTTKLTRIARRLCREILRPWHAARHPYLPINSAAIKAECTARLPEASQSPLVLKQAVRKPLEAVLRYLETHPRPPKPDPVKSVSSVLSSLTPAKVAPVINNGSPTILGKRSYEQHNGVDGNMKKRLLMPSRGLANHGQARHMGPSRNLLLNGKSYPTKVRLIRGGSLPPVKRRRMNWIDAPDDVFYMATEETRKIRKLLSSSETKRAARRPYKPIALRQSQALPPRPPPPAPVNDEPIVIED [MTA1] | 49.1 | 50.3 | -0.0863 | 1.08 | 2.79 | -0.00553
MAANMYRVGDYVYFENSSSNPYLIRRIEELNKTASGNVEAKVVCFYRRRDISNTLIMLADKHAKEIEEESETTVEADLTDKQKHQLKHRELFLSRQYESLPATHIRGKCSVALLNETESVLSYLDKEDTFFYSLVYDPSLKTLLADKGEIRVGPRYQADIPEMLLEGESDEREQSKLEVKVWDPNSPLTDRQIDQFLVVARAVGTFARALDCSSSVRQPSLHMSAAAASRDITLFHAMDTLYRHSYDLSSAISVLVPLGGPVLCRDEMEEWSASEASLFEEALEKYGKDFNDIRQDFLPWKSLTSIIEYYYMWKTTDRYVQQKRLKAAEAESKLKQVYIPTYSKPNPNQISTSNGKPGAVNGAVGTTFQPQNPLLGRACESCYATQSHQWYSWGPPNMQCRLCAICWLYWKKYGGLKMPTQSEEEKLSPSPTTEDPRVRSHVSRQAMQGMPVRNTGSPKSAVKTRQAFFLHTTYFTKFARQVCKNTLRLRQAARRPFVAINYAAIRAEYADRHAELSGSPLKSKSTRKPLACIIGYLEIHPAKKPNVIRSTPSLQTPTTKRMLTTPNHTSLSILGKRNYSHHNGLDELTCCVSD [MTA3] | 49.3 | 49.7 | -0.0389 | 0.944 | 4.09 | -0.00121
MAANMYRVGDYVYFENSSSNPYLVRRIEELNKTANGNVEAKVVCLFRRRDISSSLNSLADSNAREFEEESKQPGVSEQQRHQLKHRELFLSRQFESLPATHIRGKCSVTLLNETDILSQYLEKEDCFFYSLVFDPVQKTLLADQGEIRVGCKYQAEIPDRLVEGESDNRNQQKMEMKVWDPDNPLTDRQIDQFLVVARAVGTFARALDCSSSIRQPSLHMSAAAASRDITLFHAMDTLQRNGYDLAKAMSTLVPQGGPVLCRDEMEEWSASEAMLFEEALEKYGKDFNDIRQDFLPWKSLASIVQFYYMWKTTDRYIQQKRLKAAEADSKLKQVYIPTYTKPNPNQIISVGSKPGMNGAGFQKGLTCESCHTTQSAQWYAWGPPNMQCRLCASCWIYWKKYGGLKTPTQLEGATRGTTEPHSRGHLSRPEAQSLSPYTTSANRAKLLAKNRQTFLLQTTKLTRLARRMCRDLLQPRRAARRPYAPINANAIKAECSIRLPKAAKTPLKIHPLVRLPLATIVKDLVAQAPLKPKTPRGTKTPINRNQLSQNRGLGGIMVKRAYETMAGAGVPFSANGRPLASGIRSSSQPAAKRQKLNPADAPNPVVFVATKDTRALRKALTHLEMRRAARRPNLPLKVKPTLIAVRPPVPLPAPSHPASTNEPIVLED [MTA2] | 48.4 | 49.5 | -0.0629 | 0.686 | 5.69 | -0.00514
MAANYSSTSTRREHVKVKTSSQPGFLERLSETSGGMFVGLMAFLLSFYLIFTNEGRALKTATSLAEGLSLVVSPDSIHSVAPENEGRLVHIIGALRTSKLLSDPNYGVHLPAVKLRRHVEMYQWVETEESREYTEDGQVKKETRYSYNTEWRSEIINSKNFDREIGHKNPSAMAVESFMATAPFVQIGRFFLSSGLIDKVDNFKSLSLSKLEDPHVDIIRRGDFFYHSENPKYPEVGDLRVSFSYAGLSGDDPDLGPAHVVTVIARQRGDQLVPFSTKSGDTLLLLHHGDFSAEEVFHRELRSNSMKTWGLRAAGWMAMFMGLNLMTRILYTLVDWFPVFRDLVNIGLKAFAFCVATSLTLLTVAAGWLFYRPLWALLIAGLALVPILVARTRVPAKKLE [TMEM43] | 53.5 | 53.1 | -0.206 | 3.06 | 4.18 | -0.244
MAAPAQQTTQPGGGKRKGKAQYVLAKRARRCDAGGPRQLEPGLQGILITCNMNERKCVEEAYSLLNEYGDDMYGPEKFTDKDQQPSGSEGEDDDAEAALKKEVGDIKASTEMRLRRFQSVESGANNVVFIRTLGIEPEKLVHHILQDMYKTKKKKTRVILRMLPISGTCKAFLEDMKKYAETFLEPWFKAPNKGTFQIVYKSRNNSHVNREEVIRELAGIVCTLNSENKVDLTNPQYTVVVEIIKAVCCLSVVKDYMLFRKYNLQEVVKSPKDPSQLNSKQGNGKEAKLESADKSDQNNTAEGKNNQQVPENTEELGQTKPTSNPQVVNEGGAKPELASQATEGSKSNENDFS [THUMPD1] | 53.7 | 54.3 | 0.555 | 0.34 | 2.04 | -0.0115
MAAPEERDLTQEQTEKLLQFQDLTGIESMDQCRHTLEQHNWNIEAAVQDRLNEQEGVPSVFNPPPSRPLQVNTADHRIYSYVVSRPQPRGLLGWGYYLIMLPFRFTYYTILDIFRFALRFIRPDPRSRVTDPVGDIVSFMHSFEEKYGRAHPVFYQGTYSQALNDAKRELRFLLVYLHGDDHQDSDEFCRNTLCAPEVISLINTRMLFWACSTNKPEGYRVSQALRENTYPFLAMIMLKDRRMTVVGRLEGLIQPDDLINQLTFIMDANQTYLVSERLEREERNQTQVLRQQQDEAYLASLRADQEKERKKREERERKRRKEEEVQQQKLAEERRRQNLQEEKERKLECLPPEPSPDDPESVKIIFKLPNDSRVERRFHFSQSLTVIHDFLFSLKESPEKFQIEANFPRRVLPCIPSEEWPNPPTLQEAGLSHTEVLFVQDLTDE [FAF2] | 49.9 | 50.4 | -0.0258 | 2.25 | 3.16 | -0.13
